From paper PMC8280789
pKd: −log10 of the molar value.

Legend:
Experiment in all cases: ELISA; dose-response: host component coated (1 μg/well); rLIC13086 at rising concentrations (0–5 μM in the methods; 0–0.5 μM or 0–5 μM in the legends), 2 h at 37°C; detected with HRP-conjugated anti-His mAb; KD from a non-linear fit of the specific binding equation (GraphPad Prism)
laminin (human) = target: laminin (human)
C4b (human) = target: C4b (human)
plasminogen (human) = target: plasminogen (human)
C7 (human) = C7 (human) (UniProt P10643)
Chain of UniProt P10643 (P10643 23-843): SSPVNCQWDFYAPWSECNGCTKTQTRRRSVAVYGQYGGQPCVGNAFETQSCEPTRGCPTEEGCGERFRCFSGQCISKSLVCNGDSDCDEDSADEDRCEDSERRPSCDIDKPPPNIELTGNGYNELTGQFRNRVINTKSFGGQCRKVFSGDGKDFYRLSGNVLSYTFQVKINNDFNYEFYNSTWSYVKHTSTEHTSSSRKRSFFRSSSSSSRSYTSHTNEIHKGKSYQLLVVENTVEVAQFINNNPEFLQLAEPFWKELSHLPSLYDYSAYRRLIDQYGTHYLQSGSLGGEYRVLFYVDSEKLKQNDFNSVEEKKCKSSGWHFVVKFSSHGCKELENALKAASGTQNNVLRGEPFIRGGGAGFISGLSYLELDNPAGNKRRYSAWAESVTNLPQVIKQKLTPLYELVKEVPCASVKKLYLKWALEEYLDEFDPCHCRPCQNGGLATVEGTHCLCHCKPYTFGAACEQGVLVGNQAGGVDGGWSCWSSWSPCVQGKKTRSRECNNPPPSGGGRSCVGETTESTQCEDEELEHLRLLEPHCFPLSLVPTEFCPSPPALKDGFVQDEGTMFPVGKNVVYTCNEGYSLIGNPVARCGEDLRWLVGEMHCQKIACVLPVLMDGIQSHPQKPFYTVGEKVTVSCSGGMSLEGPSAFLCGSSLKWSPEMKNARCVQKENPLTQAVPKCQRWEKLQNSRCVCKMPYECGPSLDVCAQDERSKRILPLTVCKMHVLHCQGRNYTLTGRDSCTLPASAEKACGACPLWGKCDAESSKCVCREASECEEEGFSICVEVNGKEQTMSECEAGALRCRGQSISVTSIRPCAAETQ

C9 (human) = C9 (human) (UniProt P02748)
Chain of UniProt P02748 (P02748 22-559): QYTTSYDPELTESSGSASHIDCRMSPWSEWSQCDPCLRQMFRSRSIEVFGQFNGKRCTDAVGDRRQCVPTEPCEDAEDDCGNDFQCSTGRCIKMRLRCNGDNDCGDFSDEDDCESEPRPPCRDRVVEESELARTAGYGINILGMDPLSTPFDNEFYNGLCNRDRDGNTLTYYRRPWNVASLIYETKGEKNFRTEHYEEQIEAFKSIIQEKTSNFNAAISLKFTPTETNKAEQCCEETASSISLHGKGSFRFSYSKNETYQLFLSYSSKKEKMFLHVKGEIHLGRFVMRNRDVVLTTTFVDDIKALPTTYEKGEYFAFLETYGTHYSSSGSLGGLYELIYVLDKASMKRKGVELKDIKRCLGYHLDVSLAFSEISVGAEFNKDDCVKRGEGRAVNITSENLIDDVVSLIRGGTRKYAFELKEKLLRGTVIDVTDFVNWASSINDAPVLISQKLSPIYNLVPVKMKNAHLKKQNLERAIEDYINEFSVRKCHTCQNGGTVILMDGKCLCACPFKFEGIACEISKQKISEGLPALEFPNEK

C8 (human) = target: C8 (human)
C5b6 (human) = C5b6 (human) (UniProt P13671)
[1] = target: plasma fibronectin (human)
fibrinogen (human) = target: fibrinogen (human)
C4BP (human) = target: C4BP (human)

recombinant protein LIC13086 (natural protein)
pKd (laminin (human)): 7.73 | pKd (C4b (human)): 6.79 | pKd (plasminogen (human)): 8.00 | pKd (C7 (human)): 7.45 | pKd (C9 (human)): 6.09 | pKd (C8 (human)): 6.87 | pKd (C5b6 (human)): 7.39 | pKd [1]: 8.24 | pKd (fibrinogen (human)): 6.49 | pKd (C4BP (human)): 8.05
